Results as given in the supplement of paper PMC10724198.
± gives the standard deviation of the averaged measurements.

Experiments:
Saccharomyces cerevisiae [1] = assay: protein stability index of tFT-peptide fusion (C-terminal peptide) (PSI (0-1 scale)); higher = more stable (slower turnover); settings: genetic background: wild type; temperature: 30 C
Saccharomyces cerevisiae [2] = assay: as above
Method: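 MPS profiling in S. cerevisiae of the tFT-X12 degron library: putative degron peptides plus stable controls, 12 aa, fused to the C-terminus of a sfGFP-mCherry timer. Cells are FACS-sorted into 8 mCherry/sfGFP bins and deep-sequenced. PSI runs from 0 (unstable) to 1 (stable). Backgrounds are wild type, das1Δ and doa10Δ at 30 °C, and wild type, das1Δ, cdc34-1 and cdc53-1 at 37 °C; 2-3 technical replicates each.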

[3] = genetic background: cdc34-1, temperature: 37 C
[4] = genetic background: cdc53-1, temperature: 37 C
[5] = genetic background: das1 deletion, temperature: 30 C
[6] = genetic background: das1 deletion, temperature: 37 C
[7] = genetic background: doa10 deletion, temperature: 30 C
[8] = genetic background: wild type, temperature: 30 C
[9] = genetic background: wild type, temperature: 37 C
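Further: PSI is a weighted mean of sequencing reads over stability bins, variants kept only with over 10 reads, mCherry proximal and sfGFP distal, peptide attached via GGGS linker.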

Sequence | protein stability index (Saccharomyces cerevisiae [1]) | protein stability index (Saccharomyces cerevisiae [2]; [3]) | protein stability index (Saccharomyces cerevisiae [2]; [4]) | protein stability index (Saccharomyces cerevisiae [2]; [5]) | protein stability index (Saccharomyces cerevisiae [2]; [6]) | protein stability index (Saccharomyces cerevisiae [2]; [7]) | protein stability index (Saccharomyces cerevisiae [2]; [8]) | protein stability index (Saccharomyces cerevisiae [2]; [9])
VCRFLVSVFSCV | 0.439 ± 0.019 | 0.546 ± 0.042 | 0.548 ± 0.02 | 0.453 ± 0.02 | 0.5763 ± 0.00065 | 0.38 ± 0.024 | 0.399 ± 0.025 | 0.5167 ± 0.0027
CPFFFFSLIFLF | 0.298 ± 0.017 | 0.16 ± 0.058 | 0.214 ± 0.044 | 0.228 ± 0.041 | 0.329 ± 0.011 | 0.349 ± 0.025 | 0.193 ± 0.03 | 0.284 ± 0.011
GACGLGMLIFIV | 0.411 ± 0.0075 | 0.585 ± 0.04 | 0.618 ± 0.03 | 0.427 ± 0.026 | 0.623 ± 0.015 | 0.256 ± 0.012 | 0.29 ± 0.02 | 0.511 ± 0.017
PWAQCVLLWVVV | 0.457 ± 0.0064 | 0.459 ± 0.043 | 0.495 ± 0.021 | 0.397 ± 0.032 | 0.5401 ± 0.0014 | 0.329 ± 0.015 | 0.359 ± 0.025 | 0.4776 ± 0.004
AFVSVHRLRLAS | 0.4053 ± 0.0023 | 0.642 ± 0.016 | 0.724 ± 0.014 | 0.605 ± 0.017 | 0.734 ± 0.01 | 0.174 ± 0.0083 | 0.183 ± 0.037 | 0.374 ± 0.018
LVTRVFVYFSIG | 0.413 ± 0.012 | 0.498 ± 0.061 | 0.583 ± 0.035 | 0.403 ± 0.034 | 0.554 ± 0.036 | 0.323 ± 0.0055 | 0.35 ± 0.034 | 0.514 ± 0.0066
FRFPCSILMTLL | 0.258 ± 0.028 | 0.578 ± 0.011 | 0.6111 ± 0.0035 | 0.538 ± 0.021 | 0.622 ± 0.026 | 0.196 ± 0.0043 | 0.197 ± 0.013 | 0.297 ± 0.036
FWFSFLLSGVCC | 0.347 ± 0.04 | 0.24 ± 0.031 | 0.171 ± 0.013 | 0.272 ± 0.029 | 0.29 ± 0.0029 | 0.257 ± 0.012 | 0.268 ± 0.022 | 0.266 ± 0.016
YFLAMFIISGGV | 0.478 ± 0.073 | 0.371 ± 0.032 | 0.435 ± 0.032 | 0.28 ± 0.034 | 0.4798 ± 0.0021 | 0.248 ± 0.011 | 0.263 ± 0.042 | 0.443 ± 0.031
LVLFVCFSLFMR | 0.309 ± 0.058 | 0.153 ± 0.0065 | 0.166 ± 0.037 | 0.189 ± 0.019 | 0.291 ± 0.012 | 0.219 ± 0.0087 | 0.168 ± 0.022 | 0.2732 ± 0.00043
WPRLSHIASFLA | 0.459 ± 0.025 | 0.675 ± 0.039 | 0.724 ± 0.038 | 0.682 ± 0.021 | 0.729 ± 0.01 | 0.26889 ± 7.6e-05 | 0.326 ± 0.021 | 0.509 ± 0.0095
LPPVPLRLTLVL | 0.4414 ± 0.00093 | 0.448 ± 0.0077 | 0.474 ± 0.031 | 0.353 ± 0.026 | 0.503 ± 0.005 | 0.3197 ± 0.0027 | 0.359 ± 0.024 | 0.477 ± 0.0054
VLPQSVWILVRV | 0.2609 ± 0.0026 | 0.0621 ± 0.016 | 0.0737 ± 0.0062 | 0.172 ± 0.024 | 0.236 ± 0.012 | 0.144 ± 0.021 | 0.155 ± 0.032 | 0.1936 ± 0.0014
CLGFWVCCYCLV | 0.396 ± 0.029 | 0.537 ± 0.037 | 0.589 ± 0.044 | 0.474 ± 0.006 | 0.592 ± 0.0093 | 0.246 ± 0.0084 | 0.281 ± 0.035 | 0.48 ± 0.017
VMFWRGVWLSFC | 0.268 ± 0.03 | 0.313 ± 0.036 | 0.361 ± 0.049 | 0.45 ± 0.019 | 0.572 ± 0.03 | 0.23 ± 0.0033 | 0.197 ± 0.016 | 0.335 ± 0.011
GARCFGFFCFLV | 0.207 ± 0.011 | 0.4284 ± 0.0039 | 0.507 ± 0.027 | 0.447 ± 0.032 | 0.582 ± 0.011 | 0.127 ± 0.0078 | 0.115 ± 0.017 | 0.169 ± 0.0064
SSLGILHWRLHS | 0.224 ± 0.0078 | 0.587 ± 0.038 | 0.709 ± 0.019 | 0.646 ± 0.011 | 0.7347 ± 0.0067 | 0.122 ± 0.022 | 0.14 ± 0.017 | 0.259 ± 0.027
PFLPFPPPLPAY | 0.0909 ± 0.028 | 0.4873 ± 0.0045 | 0.553 ± 0.015 | 0.394 ± 0.026 | 0.5646 ± 0.0038 | 0.362 ± 0.0056 | 0.408 ± 0.018 | 0.5079 ± 0.0042
SCICTSCLVLVL | 0.368 ± 0.049 | 0.5223 ± 0.0033 | 0.509 ± 0.024 | 0.327 ± 0.032 | 0.552 ± 0.002 | 0.298 ± 0.011 | 0.32 ± 0.029 | 0.5334 ± 0.0046
